Measurements from patent US20230087785A1, “Leucine-Rich Repeat Kinase 2 Allosteric Modulators” (VIB VZW, priority 2020, published 2023).

What was measured:
[1] = target: T1, LRRK2 RocCOR domain construct (human, UniProt Q5S007 1334-1840); experiment: ELISA, antigen coated on the plate, purified Nb detected via its EPEA tag
T1 construct: A second construct (residues 1293-1840, N-terminal His6-MBP) was used in certain screening experiments; not shown: N-terminal Twin-Strep-tag; C-terminal His10-tag
T1 sequence: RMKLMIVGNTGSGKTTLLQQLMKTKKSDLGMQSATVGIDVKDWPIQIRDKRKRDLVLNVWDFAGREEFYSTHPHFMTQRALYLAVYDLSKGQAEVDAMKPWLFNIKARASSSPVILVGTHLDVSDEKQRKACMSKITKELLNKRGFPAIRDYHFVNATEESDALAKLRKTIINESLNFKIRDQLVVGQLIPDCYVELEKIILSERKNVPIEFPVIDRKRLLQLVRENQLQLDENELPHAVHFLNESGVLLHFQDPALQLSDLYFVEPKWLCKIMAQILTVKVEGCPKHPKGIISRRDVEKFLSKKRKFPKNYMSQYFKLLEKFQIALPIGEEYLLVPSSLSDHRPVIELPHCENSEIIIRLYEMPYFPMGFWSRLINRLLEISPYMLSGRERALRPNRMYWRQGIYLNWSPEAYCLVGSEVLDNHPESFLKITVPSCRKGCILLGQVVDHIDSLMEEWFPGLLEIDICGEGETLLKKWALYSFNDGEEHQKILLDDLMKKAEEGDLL
Excerpt: (§1) We recombinantly expressed and purified the RocCOR, Roc, COR-B and kinase-WD40 (K-WD40) domain constructs of LRRK2 (FIG. 7). Subsequently, we performed an ELISA in which all these domain constructs were coated in parallel next to each other in the same ELISA plate, and where we subsequently detected binding of the 42 purified Nbs. […] To enrich in Nbs directed against the Roc domain we specifically included a selection step with either Roc-GTPγS or Roc-GDP.

[2] = target: T2, LRRK2 Roc domain construct (human, UniProt Q5S007 1329-1520); experiment: as above
T2 construct: not shown: N-terminal His6-tag of pET-28a
T2 sequence: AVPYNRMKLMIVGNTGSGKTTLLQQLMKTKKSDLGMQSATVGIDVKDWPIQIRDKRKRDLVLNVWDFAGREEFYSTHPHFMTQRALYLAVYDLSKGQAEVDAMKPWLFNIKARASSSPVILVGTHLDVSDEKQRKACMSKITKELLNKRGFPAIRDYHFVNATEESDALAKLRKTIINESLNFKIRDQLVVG
Excerpt: as §1

[3] = target: T3, LRRK2 COR-B construct (C-terminal part of the COR domain), His6-MBP tagged (human, UniProt Q5S007 1672-1840); experiment: as above
T3 construct: also called (MBP-)COR-B; not shown: N-terminal His6-MBP-tag of pDEST-566
Excerpt: as §1

[4] = target: T4, LRRK2(G2019S) (Homo sapiens, UniProt Q5S007, G2019S/M2397T/R50H); experiment: In cellulo phospho-Rab / LRRK2 autophosphorylation assay in HEK293T cells; assay type: cell-based; set-up: key to Functional Group (see FIG. 2d): Group 1: group 1: Nbs that inhibit both LRRK2 autophosphorylation and Rab10 phosphorylation in cells; Group 2: group 2: Nbs that inhibit only Rab10 phosphorylation; Group 3: group 3: Nbs that activate LRRK2 kinase activity; Group 4: group 4: Nbs that have no consistent/clear effect on LRRK2 kinase activity
T4 construct: SF tag (FLAG + Twin-Strep); expressed in transfected cells; host or cells: HEK 293T
Experimental: (FIGS. 2A-2C) LRRK2(G2019S) and its effector Rab29 were overexpressed together with GFP-fused Nbs (“Fluobody”) in HEK293T cells. A negative control, where no Nb is overexpressed (“No Nb”) is also included. […] In rows labeled “pLRRK2”, LRRK2 pS1292 levels are determined by Western Blot using a site-specific anti-pLRRK2(pS1292) antibody (Abcam, ab203181) (shown at different times of development). In the rows labeled “pRAB10”, endogenous pT72-Rab10 levels are determined by Western Blot using the MJFF/Abcam antibody MJF-R21 (Abcam, ab230261) (shown at different times of development). The three lower rows contain controls of LRRK2 (rat anti-LRRK2, 24D8), Fluobody (rat anti-GFP) and Rab10 (rabbit anti-Rab10) expression levels. (FIG. 2D) Based on the results of panels (FIGS. 2A-2C) the Nbs can be divided into 4 functional groups, with group 1: Nbs that inhibit both LRRK2 autophosphorylation and Rab10 phosphorylation in cells; group 2: Nbs that inhibit only Rab10 phosphorylation; group 3: Nbs that activate LRRK2 kinase activity; group 4: Nbs that have no consistent/clear effect on LRRK2 kinase activity.
To assess the influence of the Nbs on LRRK2 kinase activity we monitored two physiologically and disease relevant activities of LRRK2: phosphorylation of the endogenous substrate Rab10 at position T72 and LRRK2 autophosphorylation at position S1292 [25-30]. […] In our cellular assay we thus co-expressed LRRK2(G2019S), Rab29 and the different Nb-GFP fusions in HEK 293T cells (FIG. 2a-c).
HEK 293T cells were cultured in DMEM (supplemented with 10% Fetal Bovine Serum, […] L-Glutamine and 0.5% Pen/Strep). For the assay, the cells were seeded onto six-well plates and transfected at a confluency of 50-70% with the individual Nb-GFP expression constructs, SF-tagged LRRK2(G2019S) and FLAG-HA Rab29 using a self-made polyethylenimine (PEI)-based transfection reagent. After 48 hrs cells were lysed in lysis buffer [30 mM Tris-HCL (pH7.4), 150 mM NaCl, 0.5% Nonident-P40, complete protease inhibitor cocktail, phosphatase inhibitor cocktail II & III (all Sigma)]. Lysates were cleared by centrifugation at 10,000×g and adjusted to a protein concentration of 1 μg/μl in 1× Laemmli Buffer. Samples were subsequently subjected to SDS PAGE and Western Blot analysis to determine LRRK2 pS1292 and Rab10 T72 phosphorylation levels, as described below. Total LRRK2 and Rab10 levels were determined as a reference.
For western blot analysis, protein samples were separated by SDS-PAGE using NuPAGE 10% Bis-Tris gels (Invitrogen) and transferred onto PVDF membranes (Thermo Fisher). To allow simultaneous probing for LRRK2 on the one hand and Rab and the Nb-GFP fusions on the other hand, membranes were cut horizontally at the 140 kDa MW marker band. After blocking non-specific binding sites with 5% non-fat dry milk in TBST (1 h, RT) (25 mM Tris, pH 7.4, 150 mM NaCl, 0.1% Tween-20), membranes were incubated overnight at 4° C. with primary antibodies at dilutions specified below. Phospho-specific antibodies were diluted in TBST/5% BSA (Roth GmbH). Non-phospho-specific antibodies were diluted in TBST/5% non-fat dry milk powder (BioRad). Phospho-Rab10 levels were determined by the site-specific rabbit monoclonal antibody anti-pRAB10([…]) (Abcam, ab230261) and LRRK2 autophosphorylation was determined by the site-specific rabbit monoclonal antibody anti-pLRRK2(pS1292) (Abcam, ab203181), both at a dilution of 1:2,000. Total LRRK2 levels were determined by the in-house rat monoclonal antibody anti-pan-LRRK2 (clone 24D8; 1:10,000). Total Rab10 levels were determined by the rabbit monoclonal antibody anti-RAB10/ERP13424 (Abcam, ab181367) at a dilution of 1:5,000. Nb-GFP fusion proteins were detected using the rat monoclonal antibody anti-GFP (clone 3H9, ChromoTec) at a dilution of 1:2,000. For detection, goat anti-rat IgG or anti-rabbit IgG HRP-coupled secondary antibodies (Jackson ImmunoResearch) were used at a dilution of 1:15,000 in TBST/5% non-fat dry milk powder. […]

[5] = target: T5, endogenous LRRK2 (Mus musculus, UniProt Q5S006); experiment: Colocalization of GFP-Nbs with endogenous LRRK2 on zymosan-containing phagosomes in RAW264.7 cells; assay type: cell-based; settings: RAW264.7 cells transfected with GFP-Nbs, zymosan 30 mins, fixed cells
T5 construct: endogenous in cells; host or cells: RAW264.7
Experimental: RAW264.7 cells were transfected with GFP-fused Nbs and treated with Zymosan for 30 mins. Recruitment of LRRK2 and Nbs to the phagosomes was analyzed by immunofluorescence. FIG. 16A, images for Nb38, Nb22, Nb23, Nb40, No Nb, or Irrelevant (IRR) Nb treatments; FIG. 16B, images for Nb36, Nb42, Nb17, Nb39, Nb1, and Nb6 treatments. Scale bar=10 μm.
To test whether Nbs can trace and visualize endogenous LRRK2 in fixed cells, we generated green fluorescent protein (GFP)-Nb fusions (fluobodies) as described before. Recently, it was shown that LRRK2 is recruited to phagosomes upon induction of phagocytosis in immune cells. Therefore, RAW264.7 cells were transfected with these fluobodies and treated with killed yeast bioparticles “zymosan” to induce phagocytosis.
RAW264.7 cells (ATCC® SC-6003™) were transfected with peGFP-Nb constructs using JetOPTIMUS (Polyplus transfection) for 24 hrs and then stimulated with Zymosan particles (Sigma Aldrich) for 30 mins ([…]). Immunostaining for LRRK2 was performed as reported before. Briefly, cells fixed with 4% (w/v) paraformaldehyde for 30 min, followed by treatment with 100% EtOH at −20° C. Sampled were permeabilized with PBS/0.5% Triton X-100 and blocked with 3% BSA. Primary antibodies (rabbit anti-LRRK2, c41-2, Abcam and mouse anti-GFP, G6539, Sigma Aldrich) were diluted in PBS containing 3% BSA and 0.5% Triton X-100 and incubated overnight at 4° C. After three 5-min washes with PBS, secondary fluorescently labeled antibodies (anti-rabbit-Alexa fluor 568 and anti-mouse-Alexa fluor 488, Invitrogen) were added in a similar manner to primary antibodies and incubated for 1 hour at room temperature. Cells were washed twice with 1×PBS and mounted with Fluroshield antifade reagent with DAPI (SigmaAldrich). Images were acquired on Zeiss LSM800 confocal laser scanning microscope. Image analysis of z-scan was done using the Zeiss microscope software ZEN.

T4 sequence (Q5S007 whole entry R50H/G2019S/M2397T): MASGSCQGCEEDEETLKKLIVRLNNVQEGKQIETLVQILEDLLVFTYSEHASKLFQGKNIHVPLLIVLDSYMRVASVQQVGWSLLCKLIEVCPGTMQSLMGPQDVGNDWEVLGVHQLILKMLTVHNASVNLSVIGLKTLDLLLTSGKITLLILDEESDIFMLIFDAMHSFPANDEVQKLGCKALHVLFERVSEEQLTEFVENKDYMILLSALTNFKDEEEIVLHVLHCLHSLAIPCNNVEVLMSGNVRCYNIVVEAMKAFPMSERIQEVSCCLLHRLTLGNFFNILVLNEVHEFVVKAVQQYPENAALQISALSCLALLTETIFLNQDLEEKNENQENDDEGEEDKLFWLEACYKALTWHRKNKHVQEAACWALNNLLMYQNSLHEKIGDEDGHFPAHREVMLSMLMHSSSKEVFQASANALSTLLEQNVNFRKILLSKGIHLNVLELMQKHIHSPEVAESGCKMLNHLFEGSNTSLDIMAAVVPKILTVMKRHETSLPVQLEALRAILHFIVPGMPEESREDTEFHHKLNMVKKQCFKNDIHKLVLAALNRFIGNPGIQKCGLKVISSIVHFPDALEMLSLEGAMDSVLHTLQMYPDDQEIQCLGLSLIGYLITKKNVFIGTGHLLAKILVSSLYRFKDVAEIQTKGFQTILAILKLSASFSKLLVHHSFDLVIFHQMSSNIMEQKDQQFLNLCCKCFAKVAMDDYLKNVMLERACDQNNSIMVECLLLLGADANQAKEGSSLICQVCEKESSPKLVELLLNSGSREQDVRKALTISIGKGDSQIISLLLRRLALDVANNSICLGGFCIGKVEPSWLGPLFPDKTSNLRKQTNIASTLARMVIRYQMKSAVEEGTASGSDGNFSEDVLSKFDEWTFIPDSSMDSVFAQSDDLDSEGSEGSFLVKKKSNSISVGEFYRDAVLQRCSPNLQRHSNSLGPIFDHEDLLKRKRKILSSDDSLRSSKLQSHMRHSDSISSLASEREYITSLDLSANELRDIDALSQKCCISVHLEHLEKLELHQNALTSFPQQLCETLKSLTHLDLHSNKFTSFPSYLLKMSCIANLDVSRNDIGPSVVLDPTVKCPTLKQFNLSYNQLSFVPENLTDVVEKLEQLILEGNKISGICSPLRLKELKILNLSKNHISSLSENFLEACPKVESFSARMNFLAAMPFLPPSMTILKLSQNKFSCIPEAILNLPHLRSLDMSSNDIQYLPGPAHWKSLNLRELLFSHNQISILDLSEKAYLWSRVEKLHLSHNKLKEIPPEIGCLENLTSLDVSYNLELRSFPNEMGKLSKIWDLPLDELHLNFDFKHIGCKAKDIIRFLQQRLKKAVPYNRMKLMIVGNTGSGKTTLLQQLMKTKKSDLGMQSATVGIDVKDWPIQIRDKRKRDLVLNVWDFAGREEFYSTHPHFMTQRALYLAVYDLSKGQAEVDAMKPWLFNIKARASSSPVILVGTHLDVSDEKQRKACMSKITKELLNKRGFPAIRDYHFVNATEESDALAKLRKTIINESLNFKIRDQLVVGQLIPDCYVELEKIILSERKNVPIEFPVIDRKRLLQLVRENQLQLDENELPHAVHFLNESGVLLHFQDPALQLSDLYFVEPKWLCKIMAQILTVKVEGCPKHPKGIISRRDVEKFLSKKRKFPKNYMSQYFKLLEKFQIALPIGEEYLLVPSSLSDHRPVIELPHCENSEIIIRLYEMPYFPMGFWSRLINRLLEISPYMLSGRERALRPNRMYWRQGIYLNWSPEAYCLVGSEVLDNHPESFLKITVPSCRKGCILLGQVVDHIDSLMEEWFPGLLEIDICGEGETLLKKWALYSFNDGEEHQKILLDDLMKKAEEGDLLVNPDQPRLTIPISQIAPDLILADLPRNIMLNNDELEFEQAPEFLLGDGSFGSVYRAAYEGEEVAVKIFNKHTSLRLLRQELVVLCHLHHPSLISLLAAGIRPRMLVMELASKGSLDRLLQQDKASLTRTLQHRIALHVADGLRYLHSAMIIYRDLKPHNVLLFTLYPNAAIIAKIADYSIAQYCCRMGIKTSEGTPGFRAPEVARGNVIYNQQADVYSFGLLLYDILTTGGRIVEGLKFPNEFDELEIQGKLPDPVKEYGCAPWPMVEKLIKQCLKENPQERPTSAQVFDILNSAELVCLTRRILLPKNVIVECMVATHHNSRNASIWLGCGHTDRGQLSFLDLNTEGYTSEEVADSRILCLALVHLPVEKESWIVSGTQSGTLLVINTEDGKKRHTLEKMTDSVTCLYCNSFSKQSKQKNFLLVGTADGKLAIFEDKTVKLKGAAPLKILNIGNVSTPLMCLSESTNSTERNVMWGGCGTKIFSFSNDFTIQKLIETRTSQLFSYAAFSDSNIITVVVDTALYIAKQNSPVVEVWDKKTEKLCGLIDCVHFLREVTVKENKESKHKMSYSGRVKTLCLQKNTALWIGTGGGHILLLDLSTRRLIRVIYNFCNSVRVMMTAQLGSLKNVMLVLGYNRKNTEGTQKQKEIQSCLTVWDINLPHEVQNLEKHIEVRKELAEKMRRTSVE
T5 sequence (Q5S006 whole entry): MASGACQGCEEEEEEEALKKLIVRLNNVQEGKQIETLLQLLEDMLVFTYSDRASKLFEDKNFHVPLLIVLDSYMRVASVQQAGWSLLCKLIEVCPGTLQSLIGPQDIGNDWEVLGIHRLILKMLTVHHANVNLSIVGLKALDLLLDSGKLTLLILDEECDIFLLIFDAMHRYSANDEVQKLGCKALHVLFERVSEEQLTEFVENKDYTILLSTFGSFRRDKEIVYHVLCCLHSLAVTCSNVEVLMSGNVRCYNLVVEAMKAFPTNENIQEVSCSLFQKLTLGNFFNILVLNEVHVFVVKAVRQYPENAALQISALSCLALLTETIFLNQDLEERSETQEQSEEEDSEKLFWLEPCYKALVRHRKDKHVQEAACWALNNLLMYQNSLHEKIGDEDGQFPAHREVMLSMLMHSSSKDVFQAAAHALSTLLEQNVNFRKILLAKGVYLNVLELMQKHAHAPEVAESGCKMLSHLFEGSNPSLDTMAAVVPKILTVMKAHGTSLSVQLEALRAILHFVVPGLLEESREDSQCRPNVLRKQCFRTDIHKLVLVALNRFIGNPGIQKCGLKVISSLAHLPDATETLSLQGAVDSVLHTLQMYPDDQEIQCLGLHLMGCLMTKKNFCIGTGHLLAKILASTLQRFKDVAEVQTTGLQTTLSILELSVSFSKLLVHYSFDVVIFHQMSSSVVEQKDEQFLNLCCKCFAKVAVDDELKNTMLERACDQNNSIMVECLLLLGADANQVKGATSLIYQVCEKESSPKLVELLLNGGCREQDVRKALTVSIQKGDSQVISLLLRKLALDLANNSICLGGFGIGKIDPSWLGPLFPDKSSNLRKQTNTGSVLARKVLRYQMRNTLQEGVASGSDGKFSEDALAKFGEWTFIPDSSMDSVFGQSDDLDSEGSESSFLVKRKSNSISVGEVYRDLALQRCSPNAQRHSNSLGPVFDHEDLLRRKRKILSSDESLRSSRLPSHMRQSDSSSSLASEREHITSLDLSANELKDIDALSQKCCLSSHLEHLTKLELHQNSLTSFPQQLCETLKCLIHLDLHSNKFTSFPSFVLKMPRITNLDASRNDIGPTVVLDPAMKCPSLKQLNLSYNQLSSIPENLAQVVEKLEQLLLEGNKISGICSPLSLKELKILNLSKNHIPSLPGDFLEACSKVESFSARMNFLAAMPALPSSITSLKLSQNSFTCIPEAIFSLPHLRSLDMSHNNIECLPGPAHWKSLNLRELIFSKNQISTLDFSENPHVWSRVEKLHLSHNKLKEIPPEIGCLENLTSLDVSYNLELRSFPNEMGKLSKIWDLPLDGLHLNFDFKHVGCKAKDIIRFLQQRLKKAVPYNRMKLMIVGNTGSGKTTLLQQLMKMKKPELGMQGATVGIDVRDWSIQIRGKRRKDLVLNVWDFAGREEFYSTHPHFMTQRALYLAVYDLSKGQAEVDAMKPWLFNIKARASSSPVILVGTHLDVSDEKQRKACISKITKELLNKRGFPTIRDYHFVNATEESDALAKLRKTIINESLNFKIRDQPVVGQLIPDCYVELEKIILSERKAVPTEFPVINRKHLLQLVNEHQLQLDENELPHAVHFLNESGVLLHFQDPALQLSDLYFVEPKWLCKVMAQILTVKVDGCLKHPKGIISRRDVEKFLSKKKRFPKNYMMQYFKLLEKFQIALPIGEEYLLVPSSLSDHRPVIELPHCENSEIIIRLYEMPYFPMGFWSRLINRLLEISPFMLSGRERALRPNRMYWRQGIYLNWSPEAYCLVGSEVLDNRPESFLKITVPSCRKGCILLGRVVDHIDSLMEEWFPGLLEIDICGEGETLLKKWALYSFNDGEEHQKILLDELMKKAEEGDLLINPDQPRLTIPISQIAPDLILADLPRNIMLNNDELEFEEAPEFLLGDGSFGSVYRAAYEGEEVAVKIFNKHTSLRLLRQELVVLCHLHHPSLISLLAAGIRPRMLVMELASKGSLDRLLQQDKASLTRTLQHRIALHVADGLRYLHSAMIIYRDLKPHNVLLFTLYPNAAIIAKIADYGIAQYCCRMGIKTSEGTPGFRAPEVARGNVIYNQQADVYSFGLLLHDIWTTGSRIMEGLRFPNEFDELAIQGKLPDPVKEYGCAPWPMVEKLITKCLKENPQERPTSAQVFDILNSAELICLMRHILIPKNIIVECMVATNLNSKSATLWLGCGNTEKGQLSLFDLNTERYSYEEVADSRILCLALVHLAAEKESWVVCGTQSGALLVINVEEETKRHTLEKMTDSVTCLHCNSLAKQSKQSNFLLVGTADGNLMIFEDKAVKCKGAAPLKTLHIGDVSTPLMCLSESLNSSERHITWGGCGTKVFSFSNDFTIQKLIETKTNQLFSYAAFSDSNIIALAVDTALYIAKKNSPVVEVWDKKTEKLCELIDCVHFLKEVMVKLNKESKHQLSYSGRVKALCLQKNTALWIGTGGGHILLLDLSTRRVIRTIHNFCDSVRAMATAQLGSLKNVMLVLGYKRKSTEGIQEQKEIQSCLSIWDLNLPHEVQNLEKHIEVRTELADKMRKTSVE

B1: Nb9 (CA13598) (VHH)
VHH: QVQLVESGGGLVQPGGSLRLSCAASGSIFSINAMGWYRQAPGKQRELVAAITSGGRTNYADSVRGRFTISRDHAKNTVYLQMNSLKPEDTAVYYCNAGDWQTMYDYWGQGTQVTVSS
[1]
  binding result: no binding (tested: not given)
[2]
  binding result: no binding (tested: not given)
[3]
  binding result: no binding (tested: not given)

B2: Nb28 (CA13617) (VHH)
VHH: QVQLVESGGGLVQAGGSLRLSCAASGIIFHWYDMDWYRQAPGKQRELVATITTGGRADYADFVKGRFSISRDNAKTTVYLQMNSLKPEDTAVYYCSFQDHVLRRWGQGTQVTVSS
[1]
  binding result: no binding (tested: not given)
[2]
  binding result: no binding (tested: not given)
[3]
  binding result: no binding (tested: not given)

B3: Nb36: LRRK2-specific Nanobody, SEQ ID NO: 7 (protein)
VHH: MAQVQLVESGGGLVQPGGSLRLSCAASGSIRSITTSAWFRQPPGKQRELVAGISSGTSTNYADSVKGRFTISRDNAKNTVYLQMNSLKPEDTAVYYCHVWISGTWYSGQGTQVTVSS
modifications: Nanobody CA14130
[4]; HEK 293T cells co-expressing LRRK2(G2019S), Rab29 and Nb-GFP
  LRRK2 autophosphorylation at position S1292: inhibiting S1292 phosphorylation at a lesser extent
[4]; HEK 293T cells co-expressing LRRK2(G2019S), Rab29 and Nb-GFP, Western blot
  influence on LRRK2 kinase activity compared to the controls: strongly decreased LRRK2 autophosphorylation and/or Rab10 phosphorylation
[4]; classification by effect on in cellulo LRRK2(G2019S) kinase activity
  Functional Group (see FIG. 2d): Group 2
[4]; endogenous Rab10, HEK 293T cells co-expressing LRRK2(G2019S), Rab29 and Nb-GFP
  Rab10 phosphorylation at position T72: inhibit Rab10 phosphorylation
[5]
  colocalization with endogenous LRRK2 on phagosomes: did not colocalize with endogenous LRRK2

B4: Nb13 (CA13602) (VHH)
VHH: QVQLVESGGGLVQPGGSLRLSCAASGSGFSIYAMGWARQAPGRQRELVAAITSGGSTNYADSVKGRFTISRDNAKNTVYLQMNSLKPEDTAVYYCNADITVVAGSTYDYWGQGTQVTVSS
[1]
  binding result: no binding (tested: not given)
[2]
  binding result: no binding (tested: not given)
[3]
  binding result: no binding (tested: not given)

B5: Nb10 (CA13599) (VHH)
VHH: QVQLVESGGGLVQPGGSLRLSCAASGSIFSIYAMGWYRQAPGKQRELVAAITSGGDTNYADSVKGRFTISRDNAKNTVYLQMNSLKPEDTAVYYCNADHTPAGTFQTFDYWGQGTQVTVSS
[1]
  binding result: no binding (tested: not given)
[2]
  binding result: no binding (tested: not given)
[3]
  binding result: no binding (tested: not given)

B6: Nb41 (CA14136) (VHH)
VHH: QVQLVESGGGLVQAGGSLRLSCEASVRTFSFYSMGWFRQAPGKEREFVAAIRWTAGSTSYADIVKGRFTISRDNGKNTVVLQMNSLEPEDTGVYYCAAQRGYLVEAASREYDYWGQGTQVTVSS
[1]
  binding result: no binding (tested: not given)
[2]
  binding result: no binding (tested: not given)
[3]
  binding result: no binding (tested: not given)
